In the supplement of paper PMC10567573:
± gives the standard deviation.

Assay: protein stability index of a GFP-peptide fusion (GPS, HEK-293T) (PSI 1-6); higher = more stable
Conditions: c terminus: a fixed tail appended
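Further: 24-mer peptide tiles fused after GFP, lentivirally expressed, FACS-sorted into six equal bins by GFP/DsRed ratio, decoded by Illumina sequencing, PSI is the read-weighted mean bin number.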

| Sequence | protein stability index (treatment: DMSO) | protein stability index (treatment: MLN4924 1 uM, 8 h) |
| --- | --- | --- |
| GDTPIRKKEELLFDDGDDIMATLG [FBF1] | 4.35 ± 0.18 | 4.47 ± 0.29 |
| LGNREALIQFLEQVHQGIKGMVLD [CPN1] | 2.43 ± 0.34 | 2.26 ± 0.18 |
| YWRYDEYKRSMDPGYPKMIAHDFP [MMP1] | 2.29 ± 0.22 | 2.18 ± 0.49 |
| QLAHMVKEQEETIQRIDENVLGAQ [STX5] | 4.81 ± 0.45 | 4.96 ± 0.21 |
| CVTLVWRMPDEDSKIDHYVLEYRR [FSD1] | 2.29 ± 0.43 | 1.93 ± 0.3 |
| RDSYGGPPRREPLPSRRDVYLSPR [RBMX] | 3.69 ± 0.36 | 3.97 ± 0.2 |
| GYEVAAAQGPNKPGYLVGRNNANG [CPN1] | 4.2 ± 0.14 | 4.32 ± 0.21 |
| SDQETLRIHERLVAGSLAGAIAQS [SLC25A25] | 3.87 ± 0.18 | 3.8 ± 0.43 |
| ARQAACCVARPGTPSLLRFALASL [ZSWIM9] | 2.33 ± 0.17 | 2.43 ± 0.32 |
| YNIPHGPVVGSTRRLYEKKIFEYE [EMD] | 3.18 ± 0.29 | 3.23 ± 0.14 |
| RQKGTGKEYAAKFIKKRRLSSSRR [DAPK3] | 4.2 ± 0.24 | 4.5 ± 0.29 |
| KYWCVTATRVAPERLFGSAANVVS [ZBED1] | 2.25 ± 0.34 | 2.38 ± 0.28 |
| EQARAYAEKNCMTFFEVSPLCNFN [RAB40C] | 2.49 ± 0.31 | 2.38 ± 0.15 |
| IIPRTVIDGLDLLKKEHPGARDGI [SMG5] | 3.2 ± 0.31 | 3.39 ± 0.23 |
| QNRYLDGMVRAHGVRVSVPCPSTT [BET1L] | 3.02 ± 0.37 | 3.21 ± 0.44 |
| PGGRPEVIYNYVQRPFIRMSWEKE [BTBD10] | 3.06 ± 0.41 | 3.21 ± 0.43 |
| IETIKIIETEDQIDKKPVSEKTDE [MIA2] | 5.02 ± 0.39 | 4.7 ± 0.94 |
| FKTIEELRDKIMATTIDNSRVILE [KRT15] | 2.54 ± 0.28 | 2.65 ± 0.26 |
| QAEIENKRRQLEDERRQLQHLKSK [PALM] | 5.02 ± 0.17 | 4.97 ± 0.36 |
| MASLSRPSLPSCLCSFLLLLLLQV [MOG] | 2.5 ± 0.41 | 2.28 ± 0.19 |
| IVAVLCYINLLNYMDRFTVAGVLP [SPNS1] | 3.23 ± 0.3 | 3.45 ± 0.14 |
| LFFAVGIAQYALLGYFIRSWRTLA [SLC22A15] | 3.3 ± 0.34 | 3.18 ± 0.26 |
| LNQGFLQAKPEKAAVAQKPRSHFT [MYBL2] | 3.88 ± 0.34 | 4.06 ± 0.12 |

| Sequence | protein stability index (treatment: DMSO) | protein stability index (treatment: MLN4924 1 uM, 8 h) |
| --- | --- | --- |
| AALAVNTSILSRLPPEALTAPSGG [RNF208] | 3.44 ± 0.24 | 3.45 ± 0.14 |
| FLQNAKTLLKKISEASKAFQMEKI [TRIM55] | 3 ± 0.65 | 2.77 ± 0.42 |
| GVLHKHQRALHKYSLMKRQMMSAT [SNX8] | 2.4 ± 0.18 | 2.58 ± 0.24 |
| KMNFIKTYPAHQNRVSAIIFSLAT [WDFY1] | 2.65 ± 0.51 | 2.5 ± 0.37 |
| QTWKLFSSHMNIDITDDCICDLAR [PPEF2] | 2.25 ± 0.35 | 2.06 ± 0.32 |
| LDHCANRVLMYGSELDADHPGFKD [TPH1] | 4.62 ± 0.27 | 4.81 ± 0.057 |
| DVSLVGGPADCSPPHPAPAPQHPA [DYRK1B] | 5.02 ± 0.16 | 5.14 ± 0.12 |
| EVFIEWGISAKVFGATTNYGKDIV [ZBED1] | 2.35 ± 0.64 | 2.44 ± 0.3 |
| FLSFSMYQSFVQFLQYYYQSGCLY [TMEM120A] | 3.02 ± 0.39 | 3.54 ± 0.45 |
| SRKIAVEDENDLEELNNGEPQTEH [MIA2] | 5.61 ± 0.13 | 5.37 ± 0.29 |
| SCSQGSGILHYAHGDSQQTHLLKQ [CRY1] | 3.29 ± 0.16 | 3.31 ± 0.2 |
| ESLKEELLSLKQNHEQEVNTLRCQ [KRT33B] | 4.91 ± 0.099 | 4.78 ± 0.24 |
| QENESLFTFLGKKCVTMSSAVVQL [WASL] | 2.29 ± 0.34 | 2.32 ± 0.039 |
| YGVKSPLSLIARFSPIAIDGMSGL [ELAVL3] | 2.41 ± 0.091 | 2.35 ± 0.33 |
| GAYDFPSPEWDTVTPEAKNLINQM [CAMK2B] | 3.76 ± 0.25 | 3.85 ± 0.25 |
| KRSSLPRPSSILPPRRGVSGDRDE [MAP2] | 5.04 ± 0.24 | 5.16 ± 0.3 |
| AYVAMIPQCIKEEDTPSDNDSGIC [ATF4] | 4.25 ± 0.41 | 4.46 ± 0.26 |
| ELYGLALRFFKEKDGKAFHPTYEE [ACBD3] | 2.13 ± 0.26 | 2.19 ± 0.35 |
| MPGDTDDAFPVHRVMMASASDYFK [KLHL13] | 3.66 ± 0.35 | 3.6 ± 0.13 |
| AILVMHHSMKPHPAITATLLDFMC [INTS3] | 2.91 ± 0.36 | 2.98 ± 0.47 |
| DGAGKTPTLGGGFHVNLGKESRAQ [BRF1] | 4.63 ± 0.14 | 4.77 ± 0.34 |
| PSDKVGRADAHLGSSSVALPKEAS [TOR1AIP2] | 5.23 ± 0.14 | 5.04 ± 0.091 |
